Values of other authors, collected in PMC6944378.
pKd: −log10 of the molar value.

Target: MASP-2 (Homo sapiens) (UniProt O00187)
Test: SPR

Sequence of MASP-2 (Homo sapiens) (O00187 16-686): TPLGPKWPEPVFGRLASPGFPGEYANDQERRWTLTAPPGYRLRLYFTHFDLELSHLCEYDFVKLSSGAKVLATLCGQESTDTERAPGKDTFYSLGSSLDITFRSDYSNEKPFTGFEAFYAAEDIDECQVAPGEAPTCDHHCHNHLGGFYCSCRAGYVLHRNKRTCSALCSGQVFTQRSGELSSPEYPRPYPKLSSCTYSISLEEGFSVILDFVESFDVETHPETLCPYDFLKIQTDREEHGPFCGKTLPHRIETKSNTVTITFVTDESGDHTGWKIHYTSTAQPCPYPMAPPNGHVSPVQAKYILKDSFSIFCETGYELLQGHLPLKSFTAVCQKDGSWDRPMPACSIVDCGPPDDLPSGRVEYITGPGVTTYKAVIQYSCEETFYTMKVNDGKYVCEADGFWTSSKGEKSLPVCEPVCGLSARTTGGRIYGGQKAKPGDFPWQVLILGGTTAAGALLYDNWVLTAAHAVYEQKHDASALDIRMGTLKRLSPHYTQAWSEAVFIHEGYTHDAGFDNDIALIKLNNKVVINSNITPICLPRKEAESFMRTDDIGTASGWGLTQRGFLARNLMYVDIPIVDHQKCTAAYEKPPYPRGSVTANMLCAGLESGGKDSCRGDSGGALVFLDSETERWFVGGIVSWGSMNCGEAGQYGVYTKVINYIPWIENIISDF

ecotin (from UniProt P23827)
pKd: 7.61
